In patent publication US20170253670A1 (Hoffmann-La Roche, published 2017):
Several values for one entry are separate records, joined by “and”; a condition that tells them apart may be missing. Equal entries are not always repeated.

Legend:
[1] = target: T1, recombinant human BCMA Fc(kih) (human, UniProt Q02223 4-53, biotin on avi-tag where coupled to SA chip ; biotin on the avi-tag of the Fc-knob chain where coupled to the SA chip (tag not in the letters)); assay: SPR Biacore, binder captured via anti-Fab, BCMA-Fc analyte
T1 construct: also called huBCMA Fc(kih); huBCMA; not shown: human IgG1 hinge-Fc(knob)-avi fused to the ECD, and the unfused Fc(hole) chain
T1 chain: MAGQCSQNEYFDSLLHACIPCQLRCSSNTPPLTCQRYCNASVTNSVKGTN

[2] = target: T2, recombinant murine BCMA Fc(kih) (murine, UniProt O88472 2-49, biotinylated at the avi-tag of the Fc knob chain (not in the letters)); assay: as above
T2 construct: also called muBCMA Fc(kih); not shown: human IgG1 hinge-Fc(knob)-avi and the unfused Fc(hole) chain
T2 chain: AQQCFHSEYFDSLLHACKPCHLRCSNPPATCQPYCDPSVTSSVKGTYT

[3] = target: T1, recombinant human BCMA Fc(kih); assay: SPR Biacore, bivalent avidity, BCMA-Fc on chip (Experiment 2)
Method: (§1) Assessment of binding of anti-BCMA antibodies to recombinant BCMA by surface plasmon resonance (SPR) as follow. All SPR experiments were performed on a Biacore T200 at 25° C. with HBS-EP as running buffer (0.01 M HEPES pH 7.4, 0.15 M NaCl, 3 mM EDTA, 0.005% Surfactant P20, Biacore, Freiburg/Germany). The avidity of the interaction between anti-BCMA antibodies and recombinant BCMA Fc(kih) (human, cynomolgus and murine) was determined (Tables 38-40). Biotinylated recombinant human, cynomolgus and murine BCMA Fc(kih) were directly coupled on a SA chip following instructions (Biacore, Freiburg/Germany). The immobilization level ranged from 80 to 120 RU. […] The dissociation was monitored for 180 seconds. Bulk refractive index differences were corrected for by subtracting the response obtained on the reference flow cell. Here, the anti-BCMA antibodies were flown over an empty surface previously activated and deactivated as described in the standard amine coupling kit. Apparent kinetic constants were derived using the Biacore T200 Evaluation Software (v 1.0, Biacore AB, Uppsala/Sweden), to fit rate equations for 1:1 Langmuir binding by numerical integration, despite the bivalency of the interaction for comparison purposes.

[4] = target: T2, recombinant murine BCMA Fc(kih); assay: as above
Method: as §1

[5] = target: T1, recombinant human BCMA Fc(kih); assay: SPR Biacore, bivalent avidity, BCMA-Fc on chip (Experiment 3)
Method: as §1

[6] = target: T2, recombinant murine BCMA Fc(kih); assay: as above
Method: as §1

Fc fused huTACI-R = target: T3, Fc fused huTACI-R (human, UniProt O14836 2-166, limits assumed); assay: SPR (Biacore T200), Fc fused huTACI-R on CM5 chip, IgG as analyte, reference-subtracted
T3 construct: also called human TACI receptor
T3 sequence (looked up): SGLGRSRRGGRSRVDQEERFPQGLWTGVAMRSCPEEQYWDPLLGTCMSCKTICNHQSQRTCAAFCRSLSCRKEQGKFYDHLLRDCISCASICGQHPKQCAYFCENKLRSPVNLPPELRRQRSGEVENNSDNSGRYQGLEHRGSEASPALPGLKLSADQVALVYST

[7] = target: T1, recombinant human BCMA Fc(kih); assay: SPR Biacore, bivalent avidity, BCMA-Fc on chip
Method: as §1

[8] = target: T2, recombinant murine BCMA Fc(kih); assay: SPR Biacore, bivalent avidity, BCMA-Fc on chip
Method: as §1

[9] = target: T4, human BCMA on myeloma cells (H929, U266) (human, UniProt Q02223 1-184); assay: cell-based or functional assay
T4 sequence (looked up): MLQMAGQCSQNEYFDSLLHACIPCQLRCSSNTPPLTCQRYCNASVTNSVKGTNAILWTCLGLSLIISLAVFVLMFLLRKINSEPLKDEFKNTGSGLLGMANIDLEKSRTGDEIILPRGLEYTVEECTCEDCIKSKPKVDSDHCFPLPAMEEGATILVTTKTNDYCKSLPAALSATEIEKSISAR

[10] = target: T4, human BCMA on myeloma cells (H929, U266); assay: cell-based or functional assay; remark: listed apart in the source
[11] = target: T4, human BCMA on myeloma cells (H929, U266); assay: flow cytometry, H929 cells
Method: (§2) Briefly, cultured cells are harvested, counted and cell viability was evaluated using ViCell. Viable cells are then adjusted to 2×10⁶ cells per ml in BSA-containing FACS Stain Buffer (BD Biosciences). 100 μl of this cell suspension were further aliquoted per well into a round-bottom 96-well plate and incubated with 30 μl of the BCMA-TCB CLC antibodies or corresponding TCB control for 30 min at 4° c. All BCMA-TCB CLC antibodies (and TCB controls) were titrated and analyzed in final concentration range between 0.12-500 nM. […] Cells were then washed twice with Stain Buffer (BD Biosciences), fixed using 100 ul BD Fixation buffer per well (#BD Biosciences, 554655) at 4° C. for 20 min, resuspended in 120 μl FACS buffer and analyzed using BD FACS CantoII.

[12] = target: T5, murine FolR1 monovalent Fc fusion, biotinylated (murine, UniProt P35846 25-232, biotin on C-terminal Avi-tag ; Biotin on the C-terminal Avi-tag of the Fc-knob chain (that part is not in the letters).); assay: SPR ProteOn, Fab analyte, antigen on chip
T5 construct: as m1; also called muFolR1; murine FolR1-Fc; not shown: IgG hinge, Fc-knob and C-terminal Avi-tag fused to the ECD, and the co-expressed Fc-hole chain
T5 sequence (P35846 25-232 limits assumed): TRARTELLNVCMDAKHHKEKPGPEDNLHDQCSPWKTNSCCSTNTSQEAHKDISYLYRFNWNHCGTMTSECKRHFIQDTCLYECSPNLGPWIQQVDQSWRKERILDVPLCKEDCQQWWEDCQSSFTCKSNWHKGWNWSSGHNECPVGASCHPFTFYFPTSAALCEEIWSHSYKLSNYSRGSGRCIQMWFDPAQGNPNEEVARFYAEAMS
Method: Immobilization of antigens (ligand): Recombinant antigens were diluted with PBST (10 mM phosphate, 150 mM sodium chloride pH 7.4, 0.005% Tween 20) to 10 μg/ml, then injected at 30 μl/minute in vertical orientation. Injection of analytes: For ‘one-shot kinetics’ measurements, injection direction was changed to horizontal orientation, two-fold dilution series of purified Fab (varying concentration ranges) were injected simultaneously along separate channels 1-5, with association times of 150 or 200 s, and dissociation times of 200 or 600 s, respectively. Buffer (PBST) was injected along the sixth channel to provide an “in-line” blank for referencing. Association rate constants (kₒₙ) and dissociation rate constants (koff) were calculated using a simple one-to-one Langmuir binding model in ProteOn Manager v3.1 software by simultaneously fitting the association and dissociation sensorgrams. The equilibrium dissociation constant (KD) was calculated as the ratio koff/kₒₙ.

[13] = target: T6, human FolR1 on cells (HeLa, SKOV3, HT-29, transfected HEK) (human, UniProt P15328 25-234); assay: flow cytometry, tumor cell panel
T6 construct: whole, on cells
T6 sequence (P15328 25-234): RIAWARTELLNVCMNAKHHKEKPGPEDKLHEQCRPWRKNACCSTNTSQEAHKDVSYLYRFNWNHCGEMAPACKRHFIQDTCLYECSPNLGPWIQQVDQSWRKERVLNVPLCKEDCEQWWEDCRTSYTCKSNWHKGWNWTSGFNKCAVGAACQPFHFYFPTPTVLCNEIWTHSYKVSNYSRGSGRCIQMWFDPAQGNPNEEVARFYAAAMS

[14] = target: T4, human BCMA on myeloma cells (H929, U266); assay: flow cytometry on BCMA-positive H929 cells, PE anti-human Fc secondary antibody, median fluorescence intensity
Method: as §2

B1: pSCHLI372 anti-BCMA IgG (antibody, V domains shown)
VH: EVQLVESGGGLVKPGGSLRLSCAASGFTFSNSGMIWVRQAPGKGLEWVGHIRSKTDGGTTDYAAPVKGRFTISRDDSKNTLYLQMNSLKTEDTAVYYCTTGGSGSFDYWGQGTLVTVSS
VL: QAVVTQEPSLTVSPGGTVTLTCGSSTGAVTTSNYANWVQEKPGQAFRGLIGGTNKRAPGTPARFSGSLLGGKAALTLSGAQPEDEAEYYCALWYSNLWVFGGGTKLTVL
notes: also called pSCHLI372 IgG; anti-BCMA IgG pSCHLI372
[1]
  Kd: 114 nM
[2]
  Kd: 1310 nM
[3]
  Kd: 8.5 nM
[4]
  Kd: 42.7 nM
[5]
  Kd: 3.6 nM
[6]
  Kd: 25.7 nM
Fc fused huTACI-R
  binding result: no binding

B2: pSCHLI333 anti-BCMA IgG (antibody, V domains shown)
VH: QVQLVQSGAEVKKPGASVKVSCKASGYMFSSFGMSWVRQAPGQGLEWMGWIYPVGQGTWYAQKFQGRVTMTRDTSTSTVYMELSSLRSEDTAVYYCARVSYPPSHFDYWGQGTLVTVSS
VL: B1 VL
[7]
  Kd: 2.5 nM
[8]
  Kd: 19.6 nM

B3: pSCHLI372-TCB CLC (bispecific antibody)
heavy 1: not shown
heavy 2: EVQLVESGGGLVKPGGSLRLSCAASGFTFSNSGMIWVRQAPGKGLEWVGHIRSKTDGGTTDYAAPVKGRFTISRDDSKNTLYLQMNSLKTEDTAVYYCTTGGSGSFDYWGQGTLVTVSSASTKGPSVFPLAPSSKSTSGGTAALGCLVKDYFPEPVTVSWNSGALTSGVHTFPAVLQSSGLYSLSSVVTVPSSSLGTQTYICNVNHKPSNTKVDKKVEPKSCDKTHTCPPCPAPEAAGGPSVFLFPPKPKDTLMISRTPEVTCVVVDVSHEDPEVKFNWYVDGVEVHNAKTKPREEQYNSTYRVVSVLTVLHQDWLNGKEYKCKVSNKALGAPIEKTISKAKGQPREPQVCTLPPSRDELTKNQVSLSCAVKGFYPSDIAVEWESNGQPENNYKTTPPVLDSDGSFFLVSKLTVDKSRWQQGNVFSCSVMHEALHNHYTQKSLSLSPGK
light: QAVVTQEPSLTVSPGGTVTLTCGSSTGAVTTSNYANWVQEKPGQAFRGLIGGTNKRAPGTPARFSGSLLGGKAALTLSGAQPEDEAEYYCALWYSNLWVFGGGTKLTVLGQPKAAPSVTLFPPSSEELQANKATLVCLISDFYPGAVTVAWKADSSPVKAGVETTTPSKQSNNKYAASSYLSLTPEQWKSHRSYSCQVTHEGSTVEKTVAPTECS
notes: also called pSCHLI372 BCMAxCD3 TCB
[9]
  EC50 redirected T-cell killing, H929 (Experiment 1): 450 pM and 0.08 µg/ml
  EC50 redirected T-cell killing, H929 (Experiment 2): 900 pM and 0.17 µg/ml
[10]
  EC50 redirected T-cell killing, U266: 5700 pM and 1.1 µg/ml
[11]
  EC50: 345 nM and 65.9 µg/mL
[1]
  Kd: 63 nM
[2]
  Kd: 344 nM

B4: 14E4 Fab (Fab, V domains shown)
VH: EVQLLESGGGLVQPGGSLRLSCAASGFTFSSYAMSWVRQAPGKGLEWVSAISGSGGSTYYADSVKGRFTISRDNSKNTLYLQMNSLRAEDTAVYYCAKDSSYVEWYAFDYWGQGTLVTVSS
VL: EIVLTQSPGTLSLSPGERATLSCRASQSVSSSYLAWYQQKPGQAPRLLIYGASSRATGIPDRFSGSGSGTDSTLTISRLEPEDFAVYYCQQPTSSPITFGQGTKVEIK
notes: as m51
[12]
  Kd: 6.09 nM

B5: DP47 GS TCB (2+1 Crossfab-IgG P329G LALA inverted, untargeted TCB) (bispecific antibody)
heavy 1: not shown
heavy 2: not shown
light 1: not shown
light 2: QAVVTQEPSLTVSPGGTVTLTCGSSTGAVTTSNYANWVQEKPGQAFRGLIGGTNKRAPGTPARFSGSLLGGKAALTLSGAQPEDEAEYYCALWYSNLWVFGGGTKLTVLSSASTKGPSVFPLAPSSKSTSGGTAALGCLVKDYFPEPVTVSWNSGALTSGVHTFPAVLQSSGLYSLSSVVTVPSSSLGTQTYICNVNHKPSNTKVDKKVEPKSC
notes: negative control; also called DP47 TCB; DP47-TCB
[13]
  binding result: no binding
[14]
  binding result: no binding (tested: 500 nM)
